Measurements taken from patent US20030166036.

Columns and labels:
[1] = target: prostate specific antigen (PSA), mature form
[2] = target: proPSA (precursor, zymogen form of PSA), recombinant, P07288
Chain of proPSA (precursor, zymogen form of PSA), recombinant, P07288 (P07288 18-261): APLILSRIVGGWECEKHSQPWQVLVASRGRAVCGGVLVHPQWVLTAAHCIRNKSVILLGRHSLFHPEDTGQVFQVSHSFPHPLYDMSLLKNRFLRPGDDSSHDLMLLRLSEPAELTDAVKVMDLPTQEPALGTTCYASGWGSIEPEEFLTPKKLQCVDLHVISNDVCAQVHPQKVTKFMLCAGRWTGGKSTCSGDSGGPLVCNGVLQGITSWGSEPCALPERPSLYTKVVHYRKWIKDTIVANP

Chain of prostate specific antigen (PSA), mature form (chain, as listed by the source): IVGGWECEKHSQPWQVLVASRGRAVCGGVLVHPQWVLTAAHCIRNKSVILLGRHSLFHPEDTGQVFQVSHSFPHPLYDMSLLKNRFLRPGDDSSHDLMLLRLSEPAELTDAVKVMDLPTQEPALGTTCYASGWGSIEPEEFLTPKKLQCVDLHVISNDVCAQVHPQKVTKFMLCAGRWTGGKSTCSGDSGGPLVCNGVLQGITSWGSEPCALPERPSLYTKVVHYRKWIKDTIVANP

B1: lysyl endopeptidase C (Wako Chemicals USA) (protein)
chain: GVSGSCNIDVVCPEGDGRRDIIRAVGAYSKSGTLACTGSLVNNTANDRKMYFLTAHHCGMGTASTAASIVVYWNYQNSTCRAPNTPASGANGDGSMSQTQSGSTVKATYATSDFTLLELNNAANPAFNLFWAGWDRRDQNYPGAIAIHHPNVAEKRISNSTSPTSFVAWGGGAGTTHLNVQWQPSGGVTEPGSSGSPIYSPEKRVLGQLHGGPSSCSATGTNRSDQYGRVFTSWTGGGAAASRLSDWLDPASTGAQFIDGLDSGGGTP
initial rate of cleavage at Lys182 [1]: 12% per minute
percent of PSA cleaved at Lys182 after 30 minutes of incubation [1]: 100% of the PSA had been cleaved at Lys182
rate of cleavage at Lys145 [1]: 0.3% per minute
relative rate of cleavage, Lys182 against Lys145 [1]: Lys182 is cleaved approximately 30 times more rapidly than Lys145 by LysC
initial rate of cleavage of the Lys182 in pPSA [2]: 8% per minute
rate of cleavage at Lys145 in pPSA [2]: about 0.6% per minute
